Here are results for one substance from paper PMC4787601.

In general, Kd refers to the constant that tells how readily two partners part at equilibrium.

The experiment concerns the target phospholamban peptide, first 21 amino acids, wild type (UniProt P26678). The experiment is described as follows: SPR. A general note: Surface plasmon resonance follows binding to a sensor surface in real time, without labels.
Chain of UniProt P26678 (P26678 1-21): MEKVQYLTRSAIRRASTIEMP

In turn, “purified AKAP7γ (from UniProt Q9P0M2 1-348) (natural protein)” gave a Kd of 13.3 nM.
